# Substitutions are numbered along the chain they refer to.
# B1: ABU-377 (antibody, V domains shown)
# VH: QVQLVESGGGLVQPGGSLRLSCAASGLIVSSNYMSWVRQAPGEGLEWVSVIYSGGSTYYADSVKGRFTISRDTSKNTLYLQMNSLRAEDTAVYYCARARIYTYGPDYWGQGTLVTVSS
# VL: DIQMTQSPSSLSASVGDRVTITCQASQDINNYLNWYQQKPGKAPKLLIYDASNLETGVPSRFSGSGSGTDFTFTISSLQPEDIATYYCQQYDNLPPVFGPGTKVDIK
# B2: ABU-359 (antibody, V domains shown)
# VH: EVQLVESGGGLVQPGGSLRLSCAASGFIVSSNYMTWVRQAPGKGLEWVSVIYSGGSTFYADSVKGRFTISRHNSKNTLFLQMNSLRAEDTAVYYCARDAQNYGMDVWGQGTTVTVSS
# VL: DIQMTQSPSSLSASVGDRVTITCRASQSISSYLNWYQQKPGKAPKLLIFAASSLQTGAPSRFSGSGSGTDFTLTISSLQPEDFATYYCQQSYSTPPYTFGQGTKLEIK
# B3: ABU-341 (antibody, V domains shown)
# VH: QVQLQESGPGLVKPSQTLSLTCTVSAGSISSDTYYWSWIRQPAGKGLEWIGRIYTTGSTIYNPSLNSRVLISADTSNNQFSLKLTSVTASDTAVYYCAAHYYSRTDAFHIWGQGTMVTVSS
# VL: DIQMTQSPSSLSASVGDRVTITCRASQSIAKFLNWYQKKPGKAPNLLISTASSFQSGVPSRFSGSGSGTDYTLTISGLQPEDFATYYCQQSYSSPYTFGQGTNLEIK
# B4: ABU-365 (antibody, V domains shown)
# VH: EVQLVESGGGLIQPGGSLRLSCAASGVTVSSNYMSWVRQAPGKGLEWVSLIYSGGSTYYADSVKGRFTISRDNSKNTLYLQMNSLRAEDTAVYYCARPIVGARSGMDVWGQGTTVTVSS
# VL: DIQMTQSPSSLSASVGDRVTITCQASQDINNYLNWYQQKPGKAPKLLIYDASNLETGVPSRFSGSGSGTDFTFIISSLQPEDIATYYCQQHDNLPVTFGGGTKVEIK
# B5: ABU-375 (antibody, V domains shown)
# VH: EVQLVESGGGLVQPGGSLRLSCAASGLTVSSNYMSWVRQAPGKGLEWVSVIYSGGSTFYADSVKGRFTISRDNSKNTLYLQMNSVRAEDTAVYYCARLPYGMDVWGQGTTVTVSS
# VL: B4 VL with I29V, N30S, N31K, Y49H, E55Q, S65G, I74T, H91Y
# B6: ABU-354 (antibody, V domains shown)
# VH: EVQLVESGGGLIQPGGSLRLSCAASGLIVSSNYMSWVRQAPGKGLEWVSVLYAGGSTDYAGSVKGRFTISRDNSKNTLYLQMNSLRAEDTAVYYCARDAAVYGIDVWGQGTTVTVSS
# VL: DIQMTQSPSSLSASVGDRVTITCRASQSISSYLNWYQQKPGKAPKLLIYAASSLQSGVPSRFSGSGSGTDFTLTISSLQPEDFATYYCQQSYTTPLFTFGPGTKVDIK
# B7: ABU-373 (antibody, V domains shown)
# VH: EVQLVESGGGLIQPGGSLRLSCAASGITVSSNYMSWVRQAPGKGLEWVSVIYSGGSTYYADSVKGRFTISRDNSKNTLYLQMNSLRAEDTAVYYCARGGAYYYGMDVWGQGTTVTVSS
# VL: DIQLTQSPSFLSASVGDRVTITCRASQGISSYLAWYQQKPGKAPKLLIYAASTLQSGVPSRFSGSGSGTEFTLTISSLQPEDFATYYCQQLNTYPPFGFGPGTKVDIK
# B8: ABU-360 (antibody, V domains shown)
# VH: EVQLVESGGGLVQPGGSLRLSCAASEFIVSRNYMSWVRQAPGKGLEWVSVIYSGGSTFYADSVKGRFTISRDNSKNTLYLQMNSLRAEDTGVYYCARDRGLVSDYWGQGTLVTVSS
# VL: DIQMTQSPSSLSASVGDRVTITCQASQDINKYLNWYQQKPGKAPKLLIFDASHLETGVPSRFSASGSGTDFTFTISSLQPEDIATYYCHQYDNLPRTFGQGTRLEIK
# B9: ABU-376 (antibody, V domains shown)
# VH: B5 VH with E46N, F58Y, Q81E, V85L, R86K, A87P
# VL: B8 VL with N30R, K31N, F49H, H53N, S63I, A64G, H89Q, R96I
# B10: ABU-349 (antibody, V domains shown)
# VH: EVQLVESGGGLIQPGGSLRLSCAASGFTVSRNYMSWVRQAPGKGLEWVSLIYSGGSTFYADSVKGRFTISRDNSKNTLYLQMNTLRSEDTAVYYCARDLVVYGMDVWGQGTTVTVSS
# VL: DIQLTQSPSFLSASVGDRVTITCRASQGISSYLAWYQQKPGKAPKLLIYAASTLQVGVPSRFSGSGSGTEFTLTISSLQPEDFATYFCQQLNSYPFTFGPGTKVDIK
# B11: ABU-352 (antibody, V domains shown)
# VH: B2 VH with V12I, F27L, I28T, F79Y, Q100M, N101S
# VL: B2 VL with S31N, Y32F, F49Y, T56S, A58V, D70G, Y97D, K104R
# B12: ABU-358 (antibody, V domains shown)
# VH: B10 VH with F27L, R31S, S35N, L50V, F58Y, T77M, L78V, T84S, S87A, T114I
# VL: B7 VL with F10S, E70D, F83V, T93S, Y94N, F97I, G98T
# B13: ABU-369 (antibody, V domains shown)
# VH: B10 VH with F27L, R31S, L50V, T84S, S87A, V100Y, V101Y
# VL: AIQLTQSPSSLSASVGDRVTITCRASQGISSYLAWYQQKPGKAPKLLIFAASTLQSGVPSRFSGSGSGTDFTLTISSLQPEDFATYYCQQLDSYPLFGGGTKVEIK
# B14: ABU-367 (antibody, V domains shown)
# VH: B2 VH with V12I, F27I, H72D, F79Y, N83S, A99L, Q100G, N101P
# VL: B10 VL with Y32D, K45N, V56S, F87Y, Y94D, P95L, F96Y, P100Q, V104L, D105E
# B15: ABU-368 (antibody, V domains shown)
# VH: B10 VH with R31S, L50V, T84S, S87A, V100G, V101A
# VL: B10 VL with V56S, F87Y, Y94D, P95L, F96Y, P100Q, V104L, D105E
# B16: ABU-351 (antibody, V domains shown)
# VH: B10 VH with I12V, L50V, S56T, F58H, D72H, T84S, S87A
# VL: B10 VL with V56S, R61S, F87Y, F96L, P100G, D105E
# B17: ABU-362 (antibody, V domains shown)
# VH: B10 VH with I12V, L50V, S56T, F58H, D72H, T84S, S87A
# VL: B10 VL with V56S, R61S, F87Y, F96L, P100G, D105E
# B18: ABU-356 (antibody, V domains shown)
# VH: B10 VH with R31S, S35N, L50V, T84S, S87A, L99R
# VL: B8 VL with N30I, K31N, F49Y, D50G, H53N, A64G, S65G, R96P
# B19: ABU-372 (antibody, V domains shown)
# VH: B5 VH with L27V, S31R, F58D, D72H, V85L, A87V, L98D, P99G
# VL: B10 VL with K45N, V56S, F87Y, F96P, T97A
# B20: ABU-361 (antibody, V domains shown)
# VH: B10 VH with F27L, R31S, L50V, F58Y, K75T, T84S, S87A, V100D, V101Y
# VL: DIQLTQSPSSLSASVGDRVTITCRASQGISSYLAWYQQKPGKAPNLLIYAASTLQSGVPSRFSGSGSGTDFTLTISSLQPEDFATYYCQHLNSYPPITFGQGTRLEIK
# B21: ABU-355 (antibody, V domains shown)
# VH: B10 VH with I12V, F27I, S30R, R31S, L50V, T84S, S87A, V100I, V101S, Y102R
# VL: B7 VL with F10S, E70D, T93G, P96H, F97S, G98A
# B22: ABU-357 (antibody, V domains shown)
# VH: B10 VH with I12V, F27V, R31S, L50V, F58N, T84S, S87A, V101S
# VL: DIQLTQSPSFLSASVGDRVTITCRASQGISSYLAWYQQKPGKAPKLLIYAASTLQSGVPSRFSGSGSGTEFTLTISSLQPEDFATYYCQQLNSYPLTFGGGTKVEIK
# B23: ABU-371 (antibody, V domains shown)
# VH: B2 VH with F27I, T35S, F58Y, H72D, F79Y, A99L, Q100D, N101Y
# VL: B7 VL with T93S, G98T
# B24: ABU-340 (antibody, V domains shown)
# VH: EVQLVESGGGLVQPGGSLRLSCAASGFTVSSNYMNWVRQAPGKGLEWVSVIYSGGSTYYADSVKGRFTLSRDNSKNTLYLQMNSLRAEDTAVYYCARGQYDILTGYQYGAFDIWGQGTMVTVSS
# VL: QSALTQPASVSGSPGQSITISCTGTSSDVGTYNLVSWYQQHPGKAPKLMIYEVSKRPSGVSNRFSGSKSGNTASLTISGLQAEDEADYYCCTYAGSSTWVFGGGTKLTVL
# Molecular target: biotin-labeled SARS-COV-2 RBD domain (SARS-CoV-2, UniProt P0DTC2 319-541)
# Experiment: SPR, Biacore T200, biotin-RBD on SA chip, antibody as analyte
row,Binder,Kd [nM]
1,B1,< 10
2,B2,< 10
3,B3,< 10
4,B4,< 10
5,B5,< 10
6,B6,< 1
7,B7,< 10
8,B8,< 1
9,B9,< 10
10,B10,< 1
11,B11,< 10
12,B12,< 10
13,B13,< 10
14,B14,< 1
15,B15,< 20
16,B16,< 10
17,B17,< 20
18,B18,< 10
19,B19,< 20
20,B20,< 20
21,B21,< 1
22,B22,< 10
23,B23,< 20
24,B24,< 10

# Molecular target: S protein of the novel coronavirus SARS-CoV-2 (SARS-CoV-2, UniProt P0DTC2 14-1273)
# Experiment: cell-based or functional assay
row,Binder,"IC50 for neutralizing SARS-CoV-2 pseudovirus (Huh-7 cells, luciferase) [µg/mL]"
1,B1,< 0.5
2,B2,< 0.1
3,B3,< 0.1
4,B4,< 0.1
5,B5,< 0.1
6,B6,< 0.1
7,B7,< 0.5
8,B8,< 0.1
9,B9,< 0.1
10,B10,< 0.1
11,B11,< 0.1
12,B12,< 0.1
13,B13,< 0.1
14,B14,< 0.1
15,B15,< 0.5
16,B16,< 0.1
17,B17,< 0.5
18,B18,< 0.1
19,B19,< 0.5
20,B20,< 0.5
21,B21,< 0.1
22,B22,< 1
23,B23,< 1
24,B24,< 0.5
